PMC8699515

Target: T1, C-reactive protein (CRP) from human pleural fluid (human) (UniProt P02741)
T1 sequence: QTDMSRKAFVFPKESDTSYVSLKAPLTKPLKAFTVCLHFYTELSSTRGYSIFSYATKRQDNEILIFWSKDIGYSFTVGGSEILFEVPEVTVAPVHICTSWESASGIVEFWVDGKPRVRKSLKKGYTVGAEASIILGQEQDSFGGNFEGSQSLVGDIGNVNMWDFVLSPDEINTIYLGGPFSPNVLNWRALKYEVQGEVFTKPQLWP
Assay: ELISA; phage screening ELISA: CRP 0.25 ug/well coated overnight at 4 C on MaxiSorp, saturated with 3% BSA-PBS; phages in culture supernatant (100 uL, not normalised) 2 h at room temperature; anti-M13 HRP, TMB, absorbance at 450 nm; ratio of the CRP signal to the BSA control, triplicates

B1: anti-CRP nanobody H7 displayed on phage (VHH)
VHH: EVQLQASGGGLVQAGGSLRLSCAASGRTFSSYATGWYRQAPGKERELVAAISSGGSTYYADSVKGRFTISRDNAKNTVYLQMNSLKAEDTAVYYCAGGRRVGVLIGNEYDYWGQGTLVTVSS
  Screening ELISA (CRP/BSA Signal): 7.1
